Here are results for 3 molecules from patent US6476188 (ROCKEFELLER UNIVERSITY, dated 2002).

For experiment [1], the target named is T1, GST-PER 530-640 fusion protein (Drosophila, UniProt P07663 530-640).
T1 construct: range 530-640; Constructed as described in Saez and Young 1996 (cited); Immobilized on glutathione agarose beads; also called aa 530-640 of PER; not shown: Glutathione-S-transferase (GST) fusion partner
T1 sequence (looked up): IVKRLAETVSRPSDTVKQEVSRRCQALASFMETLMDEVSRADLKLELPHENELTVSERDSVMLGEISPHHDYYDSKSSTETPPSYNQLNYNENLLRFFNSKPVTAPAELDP
The experiment is described as follows: GST pull-down, 35S-labeled in vitro translated DBT, SDS-PAGE and autoradiography. From the text:
(§1) The staining confirms that similar amounts of GST and GST-PER fusion proteins were used in the assay. Arrow indicates BSA present in all the washes. (Right) GST alone and the indicated GST-PER fusions were used to bind in vitro translated, ^35S-labeled DBT protein. Labeled DBT proteins that bound to the indicated GST-PER fusions were visualized by SDS-PAGE and autoradiography. […] For hs-gfp-dbt, GFP was fused to the amino terminus of DBT.

Experiment [2] has as its target T2, GST (Glutathione-S-transferase) alone (UniProt P08515 1-218 = GST).
T2 construct: Control in the pull-down assay
The description is as above.
Source text: as §1

Experiment [3] deals with mouse PERIOD1 (mPER1), in vitro translated, 35S-methionine-labeled (mouse, UniProt O35973 1-1291, limits assumed). The experiment is described as follows: in vitro binding, S-agarose-bound recombinant CK1ε with 35S-labeled in vitro translated mPER1. Here is the method: (§2) Half of the bound beads were then added to a kinase reaction as described above and in Example 3 below, but without c-casein or phosvitin, and incubated at 37° C. for 5 minutes. […] Reactions were separated on 12% SDS-PAGE gels, dried and exposed to phosphor screens. Following exposure to detect both the ^35S and ^32P signals, dried gels were covered with two layers of exposed X-OMAT film to block the ^35S signal. […] PER signal is indicated by filled triangles.
Sequence of mouse PERIOD1 (mPER1), in vitro translated, 35S-methionine-labeled (O35973 whole entry): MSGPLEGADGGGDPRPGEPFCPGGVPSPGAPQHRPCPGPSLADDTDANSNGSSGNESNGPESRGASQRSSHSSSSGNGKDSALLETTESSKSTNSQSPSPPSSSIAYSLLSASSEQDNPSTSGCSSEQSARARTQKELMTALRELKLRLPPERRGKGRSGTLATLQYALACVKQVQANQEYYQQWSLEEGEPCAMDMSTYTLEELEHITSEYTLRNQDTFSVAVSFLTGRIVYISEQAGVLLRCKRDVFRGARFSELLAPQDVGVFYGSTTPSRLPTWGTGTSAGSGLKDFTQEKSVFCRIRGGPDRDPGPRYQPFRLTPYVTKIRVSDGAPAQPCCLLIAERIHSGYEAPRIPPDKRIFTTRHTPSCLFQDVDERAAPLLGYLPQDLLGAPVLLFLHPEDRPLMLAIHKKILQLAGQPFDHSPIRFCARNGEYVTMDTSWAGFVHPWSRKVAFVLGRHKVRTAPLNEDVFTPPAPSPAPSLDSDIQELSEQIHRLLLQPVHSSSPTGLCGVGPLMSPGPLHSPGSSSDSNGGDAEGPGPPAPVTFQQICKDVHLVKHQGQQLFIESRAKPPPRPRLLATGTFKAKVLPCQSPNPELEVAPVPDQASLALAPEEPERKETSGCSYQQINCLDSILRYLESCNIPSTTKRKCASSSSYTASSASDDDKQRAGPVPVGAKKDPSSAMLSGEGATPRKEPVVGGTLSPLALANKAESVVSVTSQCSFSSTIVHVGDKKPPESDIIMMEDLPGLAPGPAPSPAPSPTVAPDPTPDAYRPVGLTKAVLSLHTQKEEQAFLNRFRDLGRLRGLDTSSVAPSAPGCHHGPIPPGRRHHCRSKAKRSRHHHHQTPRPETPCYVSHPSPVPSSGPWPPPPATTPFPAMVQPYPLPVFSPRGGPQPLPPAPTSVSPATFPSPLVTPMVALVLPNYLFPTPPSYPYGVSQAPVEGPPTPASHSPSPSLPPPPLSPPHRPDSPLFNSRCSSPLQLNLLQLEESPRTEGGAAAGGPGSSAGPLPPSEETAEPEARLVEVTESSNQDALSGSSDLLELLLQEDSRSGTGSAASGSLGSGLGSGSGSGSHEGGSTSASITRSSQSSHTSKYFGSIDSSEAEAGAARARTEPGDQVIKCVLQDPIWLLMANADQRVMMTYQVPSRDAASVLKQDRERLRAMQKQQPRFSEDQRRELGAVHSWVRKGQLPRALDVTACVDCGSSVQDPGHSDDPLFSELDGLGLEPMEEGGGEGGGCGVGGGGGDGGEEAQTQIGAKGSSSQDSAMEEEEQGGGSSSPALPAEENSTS
(§3) Per binding studies: For binding assays, mPER1 and mPER2 were synthesized from cDNAs cloned in plasmids by coupled in vitro transcription/translation reactions using ^35S-methionine in a total reaction volume of 50 μl (TNT T7 Coupled Reticulocyte Lysate System, Promega). Recombinant CK1ε was purified from *E. coli* by capture on S-agarose beads as described above. To reduce non-specific binding, 20 μl of in vitro-translated product was mixed with 50 μl of plain S-agarose beads in HND buffer (20 mM HEPES, pH 7.5, 100 mM KCl, 10% glycerol, 0.4% NP40, 1 mM DTT) with 5% BSA. This mixture was incubated at room temperature with shaking for 1 hour. Following incubation, the mixture was centrifuged at 2500 rpm for 5 minutes and the resulting supernatant was divided into two equal aliquots. […]

For experiment [4], the target named is mouse PERIOD2 (mPER2), in vitro translated, 35S-methionine-labeled (mouse, UniProt O54943 1-1257, limits assumed). The experiment is described as follows: in vitro binding, S-agarose-bound recombinant CK1ε with 35S-labeled in vitro translated mPER2. The protocol:
as §2, §3

Sequence of mouse PERIOD2 (mPER2), in vitro translated, 35S-methionine-labeled (O54943 whole entry): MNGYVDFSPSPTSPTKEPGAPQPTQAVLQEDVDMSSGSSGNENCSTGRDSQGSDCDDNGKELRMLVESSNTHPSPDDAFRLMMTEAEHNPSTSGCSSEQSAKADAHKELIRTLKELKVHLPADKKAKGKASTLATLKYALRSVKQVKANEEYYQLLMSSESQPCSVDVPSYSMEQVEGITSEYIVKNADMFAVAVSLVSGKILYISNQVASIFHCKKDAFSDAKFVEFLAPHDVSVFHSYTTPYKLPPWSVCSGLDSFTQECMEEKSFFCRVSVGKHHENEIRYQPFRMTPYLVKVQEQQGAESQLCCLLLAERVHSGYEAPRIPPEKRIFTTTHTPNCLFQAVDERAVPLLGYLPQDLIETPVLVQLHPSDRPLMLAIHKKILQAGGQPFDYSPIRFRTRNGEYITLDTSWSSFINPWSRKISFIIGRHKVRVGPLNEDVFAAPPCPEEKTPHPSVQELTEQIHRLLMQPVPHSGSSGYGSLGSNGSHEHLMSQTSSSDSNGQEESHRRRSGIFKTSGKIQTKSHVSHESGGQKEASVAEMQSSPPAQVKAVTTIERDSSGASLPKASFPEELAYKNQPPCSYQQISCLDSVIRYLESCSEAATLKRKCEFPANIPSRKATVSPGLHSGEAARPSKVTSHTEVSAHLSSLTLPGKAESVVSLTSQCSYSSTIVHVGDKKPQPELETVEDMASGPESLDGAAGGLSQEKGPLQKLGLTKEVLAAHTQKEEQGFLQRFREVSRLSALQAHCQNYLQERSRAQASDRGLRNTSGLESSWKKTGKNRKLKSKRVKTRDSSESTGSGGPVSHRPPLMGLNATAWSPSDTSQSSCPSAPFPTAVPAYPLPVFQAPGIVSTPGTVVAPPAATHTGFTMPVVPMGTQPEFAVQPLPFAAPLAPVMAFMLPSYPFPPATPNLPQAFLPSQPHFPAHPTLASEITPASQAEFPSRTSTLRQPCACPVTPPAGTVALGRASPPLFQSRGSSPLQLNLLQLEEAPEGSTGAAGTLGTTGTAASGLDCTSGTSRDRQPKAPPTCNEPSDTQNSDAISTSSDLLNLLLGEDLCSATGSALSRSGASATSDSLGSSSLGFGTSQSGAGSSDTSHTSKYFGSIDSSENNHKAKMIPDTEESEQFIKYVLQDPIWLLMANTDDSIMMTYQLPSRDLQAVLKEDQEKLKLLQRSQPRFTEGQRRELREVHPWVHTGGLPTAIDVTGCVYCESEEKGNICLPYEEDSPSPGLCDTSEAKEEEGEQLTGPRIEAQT
T2 sequence (P08515 whole entry): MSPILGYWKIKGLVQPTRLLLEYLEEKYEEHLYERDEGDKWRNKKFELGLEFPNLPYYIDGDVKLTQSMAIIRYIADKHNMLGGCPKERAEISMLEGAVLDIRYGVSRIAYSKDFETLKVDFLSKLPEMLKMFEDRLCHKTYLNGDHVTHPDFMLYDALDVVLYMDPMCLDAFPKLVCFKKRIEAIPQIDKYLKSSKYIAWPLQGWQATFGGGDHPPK

B1: DOUBLETIME protein (DBT), Drosophila, in vitro translated from dbt cDNA P12, 35S-labeled (enzyme)
chain: MELRVGNKYRLGRKIGSGSFGDIYLGTTINTGEEVAIKLECIRTKHPQLHIESKFYKTMQGGIGIPRIIWCGSEGDYNVMVMELLGPSLEDLFNFCSRRFSLKTVLLLADQMISRIDYIHSRDFIHRDIKPDNFLMGLGKKGNLVYIIDFGLAKKFRDARSLKHIPYRENKNLTGTARYASINTHLGIEQSRRDDLESLGYVLMYFNLGALPWQGLKAANKRQKYERISEKKLSTSIVVLCKGFPSEFVNYLNFCRQMHFDQRPDYCHLRKLFRNLFHRLGFTYDYVFDWNLLKFGGPRNPQAIQQAQDGADGQAGHDAVAAAAAVAAAAAASSHQQQQHKVNAALGGGGGSRAQQQLQGGQTLAMLGGNGGGNGSQLIGGNGLNMDDSMAATNSSRPPYDTPERRPSIRMRQGGGGGGGGVGVGGMQSGGGGGGVGNAK
notes: In vitro translated, 35S-labeled; about 46 kDa by SDS-PAGE; the open reading frame predicts 440 aa; also called Drosophila CK1ε
On to B1, for which the binding result in experiment [1] and in experiment [2] was “no binding” in each case.

B2: recombinant wild-type hamster CK1ε with N-terminal S•Tag and His-Tag fusions, captured on S-protein agarose (enzyme)
chain: MELRVGNKYRLGRKIGSGSFGDIYLGANIASGEEVAIKLECVKTKHPQLHIESKFYKMMQGGVGIPSIKWCGAEGDYNVMVMELLGPSLEDLFNFCSRKFSLKTVLLLADQMISRIEYIHSKNFIHRDVKPDNFLMGLGKKGNLVYIIDFGLAKKYRDARTHQHIPYRENKNLTGTARYASINTHLGIEQSRRDDLESLGYVLMYFNLGSLPWQGLKAATKRQKYERISEKKMSTPIEVLCKGYPSEFSTYLNFCRSLRFDDKPDYSYLRQLFRNLFHRQGFSYDYVFDWNMLKFGAARNPEDVDRERREHEREERMGQLRGSATRALPPGPPTGATANRLRSAAEPVASTPASRIQQAGNTSPRAISRADRERKVSMRLHRGAPANVSSSDLTGRQEVSRISASQTSVPFDHLGK
notes: Full-length cDNA expressed in E. coli BL21(DE3)pLysS; The preparation holds both autophosphorylated and unphosphorylated forms; also called wild-type CK1ε; WT; not shown: N-terminal S•Tag (15 amino acids) and His-Tag fusion from the pET-30 LIC vector
B2: the binding result in experiment [3] and in experiment [4] was “binds” each time.

B3: recombinant tau mutant hamster CK1ε (Arg178Cys) with N-terminal S•Tag and His-Tag fusions, captured on S-protein agarose (enzyme)
chain: MELRVGNKYRLGRKIGSGSFGDIYLGANIASGEEVAIKLECVKTKHPQLHIESKFYKMMQGGVGIPSIKWCGAEGDYNVMVMELLGPSLEDLFNFCSRKFSLKTVLLLADQMISRIEYIHSKNFIHRDVKPDNFLMGLGKKGNLVYIIDFGLAKKYRDARTHQHIPYRENKNLTGTACYASINTHLGIEQSRRDDLESLGYVLMYFNLGSLPWQGLKAATKRQKYERISEKKMSTPIEVLCKGYPSEFSTYLNFCRSLRFDDKPDYSYLRQLFRNLFHRQGFSYDYVFDWNMLKFGAARNPEDVDRERREHEREERMGQLRGSATRALPPGPPTGATANRLRSAAEPVASTPASRIQQAGNTSPRAISRADRERKVSMRLHRGAPANVSSSDLTGRQEVSRISASQTSVPFDHLGK
notes: Full-length tau cDNA expressed in E. coli; Arg #178 of the wild-type protein is replaced by cysteine; also called tau CK1ε; tau mutant enzyme; not shown: N-terminal S•Tag (15 amino acids) and His-Tag fusion from the pET-30 LIC vector
Turning to B3, the binding result in experiment [3] and in experiment [4] was “binds” throughout.
